Measured values taken from PMC6640709, “Selection and Characterization of a Nanobody Biosensor of GTP-Bound RHO Activities” (Antibodies, 2019).

B1: RH57 hs2dAb fused at its carboxy terminal end with 6xHis-Myc-6xHis tag (VHH)
VHH: EVQLQASGGGFVQPGGSLRLSCAASGDTWWSSAMGWFRQAPGKEREFVSAISFYPTEYTYYADSVKGRFTISRDNSKNTVYLQMNSLRAEDTATYYCAWIAWGPWMRTSWYWGQGTQVTVSS
notes: humanized synthetic single domain antibody from the NaLi-H1 phage display library; also called RH57-6xhis-myc-6xhis; RH57 nanobody; source: E. coli XL1BLUE periplasm, purified (His-tag purification beads); not shown: 6xHis, C-terminal, kept; Myc, C-terminal, kept
B2: RH57 intracellular antibody with carboxy-terminal 6xHis tag followed by Myc tag (VHH)
VHH: B1 VHH
notes: as the VHH of m1; also called hs2dAb RH57 with a 6xhis and carboxy Myc tag; source: HeLa, transiently transfected, in lysate; not shown: 6xHis, C-terminal, kept; Myc, C-terminal, kept

Tests used:
[1] = molecular target: T1, 2SHA-RHOA L63 constitutively active mutant, deleted for the CAAX motif (Homo sapiens (Human)., UniProt P61586, Q63L); experiment: SPR; RH57-6xHis-Myc-6xHis captured on Ni-NTA chip (250-300 RU); 2S-HA-RHOA L63 or N19 as analyte, 3.125-50 nM, single-cycle kinetics; HBS-P+ (10 mM HEPES pH 7.4, 150 mM NaCl, 0.05% P20); 1:1 Langmuir fit; BIAcore T200; conditions: both partners purified
T1 construct: RHOA (Ras homologous family member A), deleted for the carboxy terminal four amino acids (CAAX motif); also called RHOA-CA; RHOA Q63L; source: E. coli BL21(DE3), purified (Strep-Tactin); not shown: 2x-Strep-tag, N-terminal, kept; HA, N-terminal, kept
T1 sequence (P61586 1-189 Q63L): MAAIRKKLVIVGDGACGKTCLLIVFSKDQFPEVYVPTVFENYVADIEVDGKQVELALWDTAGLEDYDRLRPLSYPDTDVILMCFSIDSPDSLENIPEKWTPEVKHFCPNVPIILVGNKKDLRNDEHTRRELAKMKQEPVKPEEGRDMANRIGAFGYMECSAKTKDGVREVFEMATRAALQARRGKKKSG

[2] = molecular target: T2, 2SHA-RHOA wild type, deleted for the CAAX motif (Homo sapiens (Human)., UniProt P61586); experiment: SPR; RH57-6xHis-Myc-6xHis captured on Ni-NTA chip; 2S-HA-RHOA WT loaded with GTPγS as analyte, 12.5-200 nM, single-cycle kinetics; HBS-P+; 1:1 Langmuir fit; conditions: both partners purified
T2 construct: RHOA (Ras homologous family member A), deleted for the carboxy terminal four amino acids (CAAX motif); the two nucleotide states are told apart by the assay; also called RHOA WT; 2S-HA-RHOA wt; source: E. coli BL21(DE3), purified (Strep-Tactin), loaded with GTPγS or GDP; not shown: 2x-Strep-tag, N-terminal, kept; HA, N-terminal, kept
T2 sequence (P61586 1-189, stated change not applied): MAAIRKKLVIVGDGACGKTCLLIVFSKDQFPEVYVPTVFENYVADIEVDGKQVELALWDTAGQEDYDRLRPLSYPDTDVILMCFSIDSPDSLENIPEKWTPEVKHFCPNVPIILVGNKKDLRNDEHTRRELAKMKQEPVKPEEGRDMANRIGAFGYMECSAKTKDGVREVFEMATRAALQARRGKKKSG

[3] = molecular target: 2SHA-RHOA N19 dominant negative mutant, deleted for the CAAX motif (UniProt P61586 1-189, T19N); experiment: SPR
Chain of 2SHA-RHOA N19 dominant negative mutant, deleted for the CAAX motif (P61586 1-189 T19N): as the sequence (P61586 1-189 Q63L) above, with T19N, L63Q counted along it

endogenous RHOC = molecular target: T3, endogenous RHOC (Homo sapiens (Human)., UniProt P08134); experiment: co-IP; RH57-6xHis-Myc expressed in HeLa; fresh, non-loaded lysate; intracellular antibody captured on His-tag Ni-NTA resin; endogenous RHO proteins blotted; conditions: partners not purified
T3 construct: RHOC, endogenous in HeLa cells; also called RHOA/B/C proteins; source: endogenous, HeLa lysate
T3 sequence (P08134 whole entry): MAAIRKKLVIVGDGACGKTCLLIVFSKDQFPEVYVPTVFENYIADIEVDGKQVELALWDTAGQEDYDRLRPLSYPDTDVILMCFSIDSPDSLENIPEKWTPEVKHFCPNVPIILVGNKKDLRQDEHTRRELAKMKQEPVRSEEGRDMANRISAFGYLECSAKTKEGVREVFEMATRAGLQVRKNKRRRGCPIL

endogenous RHOB = molecular target: T4, endogenous RHOB (Homo sapiens (Human)., UniProt P62745); experiment: as above; conditions: partners not purified
T4 construct: RHOB (RAS homologous family member B), endogenous in HeLa cells; also called RHOA/B/C proteins; source: endogenous, HeLa lysate
T4 sequence (P62745 whole entry): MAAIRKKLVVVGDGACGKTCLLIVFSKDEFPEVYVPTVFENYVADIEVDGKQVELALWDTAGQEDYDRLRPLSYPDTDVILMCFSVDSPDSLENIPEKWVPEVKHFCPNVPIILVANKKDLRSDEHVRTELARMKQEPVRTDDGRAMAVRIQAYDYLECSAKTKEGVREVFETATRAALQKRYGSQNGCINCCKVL

Binder | Kd [1] [nM] | Kd [2] [nM] | Kd [3] [nM] | binding result (endogenous RHOC) | binding result (endogenous RHOB)
B1 | 28 | 60.5 | 2410 | – | –
B2 | – | – | – | binds | binds
